Experimental data reported in patent publication US20190309059A1 (SHANGHAI PHARMAEXPLORER, published 2019).
Values joined by “and” are separate entries in the source; they are usually repeats but may differ in a detail not shown here. Identical values can stand only once.

B1: 29D9H8 (lead antibody, mouse hybridoma) (antibody, V domains shown)
VH: QVQLQQSGAELVRPGASVTLSCKASGYTFTDYEMHWVKQTPVHGLEWIGGIDPETGGTASNQKFKGKAILTADKSSSTAYMELRSLTSEDSAVYYCTSGDYFGGGPFAYWGQGTLVTVSA
VL: DIKMTQSPSSMYASLGERVTITCKASQDINSYLSWFQQKPGKSPKTLIYRANRLVDGVPSRFSGSGSGQDYSLTISSLDYEDMGIYYCLQYDEFPYTFGGGTKLEIK
notes: Mouse monoclonal antibody purified from hybridoma supernatant on Protein G
B2: c29D9H8 (mouse-human chimeric IL-13 antibody) (antibody, V domains shown)
VH: QVQLQQSGAELVRPGASVTLSCKASGYTFTDYEMHWVKQTPVHGLEWIGGIDPETGGTASNQKFKGKAILTADKSSSTAYMELRSLTSEDSAVYYCTSGDYFGGGPFAYWGQGTLVTVSA
VL: DIKMTQSPSSMYASLGERVTITCKASQDINSYLSWFQQKPGKSPKTLIYRANRLVDGVPSRFSGSGSGQDYSLTISSLDYEDMGIYYCLQYDEFPYTFGGGTKLEIK
B3: c35E2C3 (mouse-human chimeric IL-13 antibody) (antibody, V domains shown)
VH: EVQLQESGPGLAKPSQTLSLTCSVTGYSITSDYWNWIRKFPGNKLEYMGYISYNGNTYYNPSLKSQISITRDTSKNQLYLQLKSATTEDTATYYCARLAKWTWYFDIWGTGTTVTVSS
VL: DIQMNQSPSSLSASLGDTITITCHASQNINVWLSWYQQKPGSLPKLLIYKASDLHTGVPSRFSGSGSGTGFTLTISSLQPEDIATYYCQQGQSYPYTFGGGTKLEIK
B4: 28A2E11 (lead antibody, mouse hybridoma) (antibody, V domains shown)
VH: EVQLQQSGAELVKPGASVKLSCTASGFNIKDYYMHWVKQRTEQGLEWIGRIDPEDGETKYAPKFHDKATLTADTSSNTAYLQFSSLASEDTAVYYCTRYDYYGPFAYWGQGTLVTVSA
VL: QAVVTQESVLTTSPGETVTLTCRSSTGAVTTSNYANWVQEKPDHLFTGLIGGTNNRAPGVPARFSGSLIGDKAALTITGAQTEDEAIYFCALWYINHFIFGSGTKVTVL
notes: as for B1
B5: c28A2E11 (mouse-human chimeric IL-13 antibody) (antibody, V domains shown)
VH: EVQLQQSGAELVKPGASVKLSCTASGFNIKDYYMHWVKQRTEQGLEWIGRIDPEDGETKYAPKFHDKATLTADTSSNTAYLQFSSLASEDTAVYYCTRYDYYGPFAYWGQGTLVTVSA
VL: QAVVTQESVLTTSPGETVTLTCRSSTGAVTTSNYANWVQEKPDHLFTGLIGGTNNRAPGVPARFSGSLIGDKAALTITGAQTEDEAIYFCALWYINHFIFGSGTKVTVL

Tests used:
[1] = molecular target: cynomolgus IL-13 (purchased from sino biological) (cynomolgus) (UniProt Q0PW92); assay: ELISA, cynomolgus IL-13; antibody at 13.3 nM
[2] = molecular target: cynomolgus IL-13 (purchased from sino biological) (cynomolgus) (UniProt Q0PW92); assay: ELISA, cynomolgus IL-13; antibody at 66.7 nM
[3] = molecular target: cynomolgus IL-13 (purchased from sino biological) (cynomolgus) (UniProt Q0PW92); assay: ELISA, cynomolgus IL-13; antibody at 13.33 nM
[4] = molecular target: cynomolgus IL-13 (purchased from sino biological) (cynomolgus) (UniProt Q0PW92); assay: ELISA, cynomolgus IL-13; antibody at 0.107 nM
[5] = molecular target: his-labeled human IL-13 (immunogen A) (human) (UniProt P35225); assay: ELISA, biotin-immunogen A; antibody at 0.53 nM
[6] = molecular target: his-labeled human IL-13R130Q variant (human) (UniProt P35225); assay: ELISA, IL-13R130Q variant; antibody at 0.11 nM
[7] = molecular target: his-labeled human IL-13R130Q variant (human) (UniProt P35225); assay: ELISA, IL-13R130Q variant; antibody at 2.67 nM
[8] = molecular target: his-labeled human IL-13 (immunogen A) (human) (UniProt P35225); assay: ELISA, biotin-immunogen A; antibody at 0.000 nM
[9] = molecular target: his-labeled human IL-13 (immunogen A) (human) (UniProt P35225); assay: ELISA, biotin-immunogen A; antibody at 0.001 nM
[10] = molecular target: his-labeled human IL-13R130Q variant (human) (UniProt P35225); assay: ELISA, IL-13R130Q variant; antibody at 0.004 nM
[11] = molecular target: his-labeled human IL-13R130Q variant (human) (UniProt P35225); assay: ELISA, IL-13R130Q variant; antibody at 0.021 nM
[12] = molecular target: his-labeled human IL-13R130Q variant (human) (UniProt P35225); assay: ELISA, IL-13R130Q variant; antibody at 13.33 nM
[13] = molecular target: his-labeled human IL-13 (immunogen A) (human) (UniProt P35225); assay: ELISA, biotin-immunogen A; antibody at 0.00 nM (6th dilution)
[14] = molecular target: his-labeled human IL-13 (immunogen A) (human) (UniProt P35225); assay: ELISA, biotin-immunogen A; antibody at 0.00 nM (as printed, 7th dilution)
[15] = molecular target: his-labeled human IL-13 (immunogen A) (human) (UniProt P35225); assay: ELISA, biotin-immunogen A; antibody at 0.00 nM (8th dilution)
[16] = molecular target: cynomolgus IL-13 (purchased from sino biological) (cynomolgus) (UniProt Q0PW92); assay: ELISA, cynomolgus IL-13; antibody at 66.67 nM
[17] = molecular target: his-labeled human IL-13 (immunogen A) (human) (UniProt P35225); assay: ELISA, biotin-immunogen A; antibody at 0.004 nM
[18] = molecular target: his-labeled human IL-13 (immunogen A) (human) (UniProt P35225); assay: ELISA, biotin-immunogen A; antibody at 0.021 nM
[19] = molecular target: T1, mouse IL-13 (purchased from sino biological) (mouse, UniProt P20109 19-131); assay: ELISA, mouse IL-13; antibody at 0.11 nM
T1 chain: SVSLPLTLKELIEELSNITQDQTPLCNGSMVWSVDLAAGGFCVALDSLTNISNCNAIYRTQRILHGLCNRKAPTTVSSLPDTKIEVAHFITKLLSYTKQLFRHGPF

[20] = molecular target: T1, mouse IL-13 (purchased from sino …); assay: ELISA, mouse IL-13; antibody at 2.67 nM
[21] = molecular target: T1, mouse IL-13 (purchased from sino …); assay: ELISA, mouse IL-13; antibody at 0.000 nM
[22] = molecular target: T1, mouse IL-13 (purchased from sino …); assay: ELISA, mouse IL-13; antibody at 0.001 nM
[23] = molecular target: T1, mouse IL-13 (purchased from sino …); assay: ELISA, mouse IL-13; antibody at 0.004 nM
[24] = molecular target: T1, mouse IL-13 (purchased from sino …); assay: ELISA, mouse IL-13; antibody at 13.33 nM
[25] = molecular target: cynomolgus IL-13 (purchased from sino biological) (cynomolgus) (UniProt Q0PW92); assay: ELISA: cynomolgus IL-13 on the plate, antibody titrated, HRP secondary antibody, OD450
[26] = molecular target: his-labeled human IL-13 (immunogen A) (human) (UniProt P35225); assay: ELISA: biotin-labeled immunogen A on streptavidin plate, antibody titrated, HRP secondary antibody, OD450
[27] = molecular target: his-labeled human IL-13 (immunogen A) (human) (UniProt P35225); assay: FACS blocking assay: antibody titrated with biotin-labeled immunogen A (20 ng/mL); blocked partner IL-13Ra2 on HEK293 clone 1A1; Alexa 488 streptavidin
[28] = molecular target: his-labeled human IL-13 (immunogen A) (human) (UniProt P35225); assay: FACS blocking assay: antibody titrated with biotin-labeled immunogen A (30 ng/mL); blocked partner IL-13Ra1/IL-4Ra on HEK293 clone 4C1; Alexa 488 streptavidin
[29] = molecular target: cynomolgus IL-13 (purchased from sino biological) (cynomolgus) (UniProt Q0PW92); assay: ELISA, cynomolgus IL-13; antibody at 333.3 nM
[30] = molecular target: his-labeled human IL-13 (immunogen A) (human) (UniProt P35225); assay: SPR (Biacore)
[31] = molecular target: his-labeled human IL-13R130Q variant (human) (UniProt P35225); assay: ELISA, IL-13R130Q variant; antibody at 66.67 nM
[32] = molecular target: his-labeled human IL-13R130Q variant (human) (UniProt P35225); assay: ELISA: IL-13R130Q variant on the plate, antibody titrated, HRP secondary antibody, OD450

Chain of his-labeled human IL-13R130Q variant (human) (P35225 other isoform, or with tags, fused parts or gaps mutant): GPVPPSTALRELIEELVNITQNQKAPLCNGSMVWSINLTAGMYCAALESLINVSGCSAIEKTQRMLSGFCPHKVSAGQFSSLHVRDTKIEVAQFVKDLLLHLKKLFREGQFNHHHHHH
Chain of cynomolgus IL-13 (purchased from sino biological) (cynomolgus) (Q0PW92 entry or part of it): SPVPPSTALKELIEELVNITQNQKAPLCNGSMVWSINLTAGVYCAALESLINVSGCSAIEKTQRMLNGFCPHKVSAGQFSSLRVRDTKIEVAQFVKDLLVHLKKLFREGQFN

Row | Molecule | OD450 nm [1] | OD450 nm [2] | OD450 nm [3] | OD450 nm [4] | OD450 nm [5] | OD450 nm [6] | OD450 nm [7] | OD450 nm [8] | OD450 nm [9] | OD450 nm [10] | OD450 nm [11] | OD450 nm [12] | OD450 nm [13] | OD450 nm [14] | OD450 nm [15] | EC50 (read off the curve) [26] [nM] | IC50 (read off the curve) [27] [nM] | IC50 (read off the curve) [28] [nM] | Kd [30] [nM] | EC50 (read off the curve) [32] [nM] | other results
1 | IgG control (mouse IgG) (antibody) | 0.1 | 0.1 | 0.21 | 0.059 | 0.07 and 0.06 | 0.06 | 0.06 | 0.05 | 0.05 | 0.07 | 0.06 | 0.09 | 0.08 | 0.07 | 0.07 |  |  |  |  |  | 
2 | B1 |  |  | 2.46 |  | 1.4 |  |  | 0.06 | 0.07 |  |  |  |  |  |  | 0.1 | 0.2 | 0.3 |  |  | OD450 nm [16]: 2.52; OD450 nm [17]: 0.12; OD450 nm [18]: 0.34; OD450 nm [19]: 0.07; OD450 nm [20]: 0.07; OD450 nm [21]: 0.07; OD450 nm [22]: 0.07; OD450 nm [23]: 0.07; OD450 nm [24]: 0.09; EC50 (read off the curve) [25]: 0.1 nM
3 | B2 | 3.5 | 3.6 |  | 1.23 |  | 1.23 | 2.92 |  |  | 0.2 | 0.4 | 2.99 |  |  |  |  | 0.2 | 0.5 | < 90 | 0.2 | OD450 nm [29]: 3.7; OD450 nm [31]: 3.06; EC50 (read off the curve) [25]: 0.2 nM
4 | B3 | 3.1 | 3.8 |  | 0.181 | 1.63 | 0.97 | 3.1 |  |  | 0.13 | 0.28 | 3.3 | 0.09 | 0.07 | 0.06 | 0.4 | 0.3 | 0.5 | < 90 | 0.3 | OD450 nm [31]: 3.4
5 | B4 |  |  | 1.78 |  | 1.32 |  |  | 0.05 | 0.07 |  |  |  |  |  |  | 0.2 | 0.6 | 0.7 |  |  | OD450 nm [16]: 1.99; OD450 nm [17]: 0.1; OD450 nm [18]: 0.28; OD450 nm [19]: 0.07; OD450 nm [20]: 0.08; OD450 nm [21]: 0.07; OD450 nm [22]: 0.06; OD450 nm [23]: 0.07; OD450 nm [24]: 0.08
6 | B5 | 2.4 | 3.4 |  | 0.183 | 1.93 |  |  |  |  |  |  |  | 0.1 | 0.07 | 0.06 | 0.2 | 1 | 1 | < 90 | 0.3 | OD450 nm [29]: 3.9
